In publication doi:10.1101/2023.08.24.554544:

Target: GST-tagged A. thaliana Rpn10 (AtRpn10) vWA domain (Arabidopsis thaliana) (UniProt P55034)
Test: SPR

Chain of GST-tagged A. thaliana Rpn10 (AtRpn10) vWA domain (Arabidopsis thaliana) (P55034 2-193): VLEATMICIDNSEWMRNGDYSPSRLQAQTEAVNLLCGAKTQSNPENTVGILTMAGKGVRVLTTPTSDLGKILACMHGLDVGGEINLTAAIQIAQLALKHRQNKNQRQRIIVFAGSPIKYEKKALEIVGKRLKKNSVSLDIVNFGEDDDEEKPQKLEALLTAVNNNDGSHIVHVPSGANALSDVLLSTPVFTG

**Q.** For “V-shape-GSGS-C-ter peptide (fused V-shape and C-ter peptide of SAP05, linked by the GSGS linker)”, which Kd is on record?
**A.** Its Kd is 34.3 µM.
